In PMC5988984:

Target: HIV-1 reverse transcriptase p66 (HIV-1)
Experiment: SEC

Which stoichiometry N does the source give for “HIV-1 reverse transcriptase p66 (enzyme)” here?
The stoichiometry N was 2.
